Assay results taken from patent US20060159616.

What was measured:
[1] = target: T1, V-P-R-AMC fluorogenic substrate
T1 chain: VPR

[2] = target: T2, F-S-R-AMC fluorogenic substrate
T2 chain: FSR

B1: recombinant hK13 protein (active form of human kallikrein 13, produced in Pichia pastoris) (protein)
chain: VLNTNGTSGFLPGGYTCFPHSQPWQAALLVQGRLLCGGVLVHPKWVLTAAHCLKEGLKVYLGKHALGRVEAGEQVREVVHSIPHPEYRRSPTHLNHDHDIMLLELQSPVQLTGYIQTLPLSHNNRLTPGTTCRVSGWGTTTSPQVNYPKTLQCANIQLRSDEECRQVYPGKITDNMLCAGTKEGGKDSCEGDSGGPLVCNRTLYGIVSWGDFPCGQPDRPGVYTRVSRYVLWIRETIRKYETQQQKWLKGPQ
fluorescence of the substrate VPR-AMC, 10 ng of enzyme (substrate alone 0.5 arbitrary units) [1]: to 1.9 arbitrary units (10 ng of enzyme) | fluorescence of the substrate VPR-AMC, 100 ng of enzyme (substrate alone 0.5 arbitrary units) [1]: to 13.9 arbitrary units (100 ng of enzyme) | fluorescence of the substrate VPR-AMC, 160 ng of enzyme (substrate alone 0.5 arbitrary units) [1]: to 35.5 arbitrary units (160 ng of enzyme) | fluorescence of the substrate FSR-AMC, 10 ng of hK13 (substrate alone 1.1 arbitrary units) [2]: to 1.9 arbitrary units (10 ng of hK13) | fluorescence of the substrate FSR-AMC, 100 ng of hK13 (substrate alone 1.1 arbitrary units) [2]: to 6.9 arbitrary units (100 ng of hK13) | fluorescence of the substrate FSR-AMC, 160 ng of hK13 (substrate alone 1.1 arbitrary units) [2]: to 14.5 arbitrary units (160 ng of hK13)
